According to patent US20110212106A1, “HIV-1 NE[…] USES THEREOF” (priority 2010, published 2011):
Read-outs that look alike come from different tables or passages of the source.

Assays:
gp120 binding to sCD4 = details: inhibition of sCD4 binding
Experimental: Shown is mean±SD of triplicates.
The ability of mAbs to inhibit binding of sCD4 to gp120 or gp140 was evaluated by ELISA. Serial dilutions of mAbs were pre-incubated with gp120 (or gp140) and added to plates pre-coated with sCD4. After 1 h plates were washed and incubated with sheep polyclonal antibody D7324 (Aalto Bio-Reagents) followed by washing, incubation with AP-conjugated rabbit anti-sheep IgG antibody (Abcam, Cambridge, UK), extensive washing and detection using p-NPP (Sigma) as substrate.

[1] = In vivo administration in macaques
Text: Specificity: V3 loop. Pepscan analysis identified the epitope which is very conserved in the tip of V3 of gp120. It includes 4 residues involved in co-receptor (CCR5 or CXCR4) binding. Also HGN194 has accessibility problems (Fab fragment and single chain antibody may work better). Neutralizes most Tier 1 isolates (they are more sensitive isolates since the epitope is more accessible).

[2] = test system: HIV-1 pseudoviruses in HOS-CD4-CCR5 cells
Experimental: To measure the neutralization activity of the isolated mAbs, luciferase-encoding virions pseudotyped with the desired HIV-1 Env proteins were used in a single-cycle infectivity assay, as previously described (Gorny M K, et al. (2002) J Virol 76: 9035-9045). Briefly, appropriate dilutions of the virion-containing culture supernatants were pre-incubated at 37° C. for 1 h with mAbs at various concentrations. The virus-mAb mixtures were added to HOS-CD4-CCR5 cells and incubated for 3 days at 37° C. A similar protocol was used for supernatants screening using TZM-bl cells (Li M, et al. (2006) J Virol 80: 11776-11790). The cells were then lysed with Britelite reagent (Perkin-Elmer) and the relative light units in the cell lysates were determined on a luminometer microplate reader (Veritas, Turner Biosystems). The 50% inhibitory dose (IC50) was defined as the sample concentration at which relative luminescence units were reduced 50% compared to virus control wells.
The neutralizing activity of the mAbs was measured using 20 pseudotyped HIV-1 primary isolate envs characterized by different sensitivity to neutralization (Li M, et al. (2005) J Virol 79: 10108-10125; Li M, et al. (2006) J Virol 80: 11776-11790). The mAbs were tested at a fixed concentration (100 μg/ml) in the luciferase based neutralization assay using HOS-CD4.R5 as target cells.

[3] = test system: HIV-1 pseudoviruses in TZM-bl cells
HIV-1 isolates = test: Neutralization of HIV-1 isolates (TZMbl-based or HOS-based assay, not specified); assay type: cell-based
Text: FIG. 5. Epitope mapping of V3-specific mAbs by linear and circular peptide scanning. (A) Eight gp120-specific mAbs were mapped with linear and cyclic peptides to the V3 region. Shown is the HIV-1 isolate used for the mapping, the minimal epitope, the binding breadth expressed as number of recombinant Env proteins out of the 16 tested, and the fraction of isolates neutralized in the HOS and TZMbl-based neutralization assays, respectively. (B) Alignment of the region corresponding to the epitope recognized by mAb HGN194 in 44 HIV-1 isolates. Co-receptor binding residues are bold. Highlighted in grey are the isolates neutralized by HGN194 either in the TZMbl-based or in the HOS-based assays. […]
To measure the neutralization activity of the isolated mAbs, luciferase-encoding virions pseudotyped with the desired HIV-1 Env proteins were used in a single-cycle infectivity assay, as previously described (Gorny M K, et al. (2002) J Virol 76: 9035-9045). […] The cells were then lysed with Britelite reagent (Perkin-Elmer) and the relative light units in the cell lysates were determined on a luminometer microplate reader (Veritas, Turner Biosystems). […]

B1: HGN194: human mAb binding the V3 crown of gp120; VH SEQ ID NO: 45, VL SEQ ID NO: 46 (antibody, listed as Homo sapiens, V domains shown)
VH: EVQLVQSGAEVKKPGESLKISCYGSGYNFNDYWIGWVRQMPGKGLEWMGMIYPDDSDTKYSAAFEGQVTLSADKSISTAYLQWTSLRASDTATYYCARLDGDYADFDSWGQGTLVTVSS
VL: QSVLTQPPSVSAAPGQKVTISCSGTNSNLGDKFVSWYQQLPGTAPRLLIYDNDKRPSGIPDRFSGSKSGASATLAITGLQTGDEADYYCGTWDNSLSALFGGGTKLTVL
Cross-competition with: 2G12 (gp120; inhibition of biotinylated mAb 2G12 binding to immobilized gp120): − (−, <50% inhibition) | Cross-competition with: HGA9 (gp120; inhibition of biotinylated mAb HGA9 binding to immobilized gp120): + (+,90-100% inhibition) | Cross-competition with: HJ16 (gp120; inhibition of biotinylated mAb HJ16 binding to immobilized gp120): − (−, <50% inhibition) | Cross-competition with: HR10 (gp120; inhibition of biotinylated mAb HR10 binding to immobilized gp120): + (+,90-100% inhibition) | Cross-competition with: b12 (gp120; inhibition of biotinylated mAb b12 binding to immobilized gp120): − (−, <50% inhibition) | Cross-competition with: sCD4 (gp120 binding to sCD4): − (−, <50% inhibition) | efficacy in macaques [1]: complete protection | Neutralization HOS (number of isolates neutralized) ([2]; HOS-based assay, isolates neutralized/isolates tested): 11/20 | pseudoviruses neutralized out of the 20 pseudoviruses ([2]; mAb at fixed concentration 100 μg/ml): 11 | pseudoviruses neutralized in the HOS-based assay ([2]; neutralized/tested): 11/20 | Percentage of HIV-1 isolates neutralized ([3]; All (92)): 21% | Neutralization TZM-bl (number of isolates neutralized) ([3]; TZM-bl based assay, isolates neutralized/isolates tested): 19/92 | Percentage of HIV-1 isolates neutralized ([3]; Tier 1 (10)): 100% | Percentage of HIV-1 isolates neutralized ([3]; Tier 1 + Tier 2, Clade A (8)): 38% | Percentage of HIV-1 isolates neutralized ([3]; Tier 1 + Tier 2, Clade AD (1)): 0% | Percentage of HIV-1 isolates neutralized ([3]; Tier 1 + Tier 2, Clade AG (16)): 0% | Percentage of HIV-1 isolates neutralized ([3]; Tier 1 + Tier 2, Clade B (29)): 24% | Percentage of HIV-1 isolates neutralized ([3]; Tier 1 + Tier 2, Clade BC (11)): 0% | Percentage of HIV-1 isolates neutralized ([3]; Tier 1 + Tier 2, Clade C (26)): 23% | Percentage of HIV-1 isolates neutralized ([3]; Tier 1 + Tier 2, Clade G (1)): 0% | Percentage of HIV-1 isolates neutralized ([3]; Tier 2 (82)): 11% | Percentage of HIV-1 isolates neutralized ([3]; Tier 2, Clade A (5)): 20% | Percentage of HIV-1 isolates neutralized ([3]; Tier 2, Clade AD (1)): 0% | Percentage of HIV-1 isolates neutralized ([3]; Tier 2, Clade AG (16)): 0% | Percentage of HIV-1 isolates neutralized ([3]; Tier 2, Clade B (24)): 8% | Percentage of HIV-1 isolates neutralized ([3]; Tier 2, Clade BC (11)): 0% | Percentage of HIV-1 isolates neutralized ([3]; Tier 2, Clade C (24)): 17% | Percentage of HIV-1 isolates neutralized ([3]; Tier 2, Clade G (1)): 0% | pseudoviruses neutralized in the TZM-bl based assay ([3]; neutralized/tested): 19/92 | IC50 (HIV-1 isolates; isolate 93MW965.26): < 0.02 µg/mL | neutralization (HIV-1 isolates; isolates Du422.1, ZM197M.PB7 and Du172.17): not neutralized
